# Measured values published in patent US20250109187A1 (NOVAVAX, published 2025).
# B1: NVX.62.12 (antibody, V domains shown)
# VH: QVQLQQSGAELVRPGVSVKISCKGSGYTFTDYAMHWVKQSHAKSLEWIGVISTYSGDAYYNQKFKGKATVTVDKSSSTAYMELARLTSEDSAIYFCARNWDDYYAMDYWGQGTSVTVSS
# VL: QIILSQSPAILSASPGERVTMTCRATSSVSYMHWYRQKPGSSPQPWIYATSNLASGVPARFSGSGSGTSYSLTISRVEAEDAATYYCQQWSGNPWTFGGGTKLEIK
# notes: also called mAb NVX.62.12
# B2: NVX.324.6 (antibody, V domains shown)
# VH: EVQLQQSGPELGKPGTSMKISCKASGYSFTGYTMNWVKQSHGKNLEWIGLINPYNGGTSYNQKFKDKATLTVDKSSSTAYMELLSLTSEDSAVYYCVREHYYYDSGYGGYYAMDYWGQGTSVTVSS
# VL: QIVLSQSPAILSASPGDKVTMTCRASASVNYMYWYQQKPGSSPKPWIYATSNLASGVPARFSGSGSGTSYSLTISRVEAEDAAIYYCQQWSSNPYTFGGGTKLEIK
# notes: also called mAb NVX.324.6
# Experiments:
# [1] = target: T1, Prototype (Wuhan-Hu-1) rS (SARS-CoV-2 (parent virus, Wuhan-Hu-1), UniProt P0DTC2 14-1273); test: ELISA: rS coated, mAb titrated, anti-mouse HRP
# T1 construct: also called Prototype rS; Prototype spike
# [2] = target: T1, Prototype (Wuhan-Hu-1) rS
Binder,EC50 [1] [µg/mL],IC50 [2] [µg/mL]
B1,> 5,> 3
B2,> 5,> 3
